Results taken from US20150044237A1 (CENTRE NATIONAL DE LA RECHERCHE SCIENTIFIQUE, published 2015).
Values joined by “and” are separate entries in the source; they are usually repeats but may differ in a detail not shown here. Identical values can stand only once. Like-named read-outs stand apart in the source and are kept apart here. Each block holds one molecule with its values, some of them ahead of it.

B3: D2FasL (ligand, human)
chain: TPQQLNCETHDLKEIICSWNPGRVTALVGPRATSYTLVESFSGKYVRLKRAEAPTNESYQLLFQMLPNQEIYNFTLNAHNPLGRSQSTILVNITEKVYPHTPTSFKVKDINSTAVKLSWHLPGNFAKINFLCEIEIKKSNSVQEQRNVTIKGVENSSYLVALDKLNPYTLYTFRIRCSTETFWKWSKWSNKKQHLTTEASQKELAELRESTSQMHTASSLEKQIGHPSPPPEKKELRKVAHLTGKSNSRSMPLEWEDTYGIVLLSGVKYKKGGLVINETGLYFVYSKVYFRGQSCNNLPLSHKVYMRNSKYPQDLVMMEGKMMSYCTTGQMWARSSYLGAVFNLTSADHLYVNVSELSLVNFEESQTFFGLYKL
notes: domain: D2
B5: Recombinant Fas-Fc (R&Dsystems) (Fc fusion, UniProt P25445 26-173, looked up)
chain: QVTDINSKGLELRKTVTTVETQNLEGLHHDGQFCHKPCPPGERKARDCTVNGDEPDCVPCQEGKEYTDKAHFSSKCRRCRLCDEGHGLEVEINCTRTQNTKCRCKPNFFCNSTVCEHCDPCTKCEHGIIKECTLTSNTKCKEEGSRSN
notes: not shown: Fc part
B6: D1IgD2FasL (ligand, human)
chain: QKKGAPHDLKCVTNNLQVWNCSWKAPSGTGRGTDYEVCIENRSRSCYQLEKTSIKIPALSHGDYEITINSLHDFGSSTSKFTLNEQNVSLIPDTPEILNLSADFSTSTLYLKWNDRGSVFPHRSNVIWEIKVLRKESMELVKLVTHNTTLNGKDTLHHWSWASDMPLECAIHFVEIRCYIDNLHFSGLEEWSDWSPVKNISWIPDSQTKVFPQDKVILVGSDITFCCVSQEKVLSALIGHTNCPLIHLDGENVAIKIRNISVSASSGTNVVFTTEDNIFGTVIFAGYPPDTPQQLNCETHDLKEIICSWNPGRVTALVGPRATSYTLVESFSGKYVRLKRAEAPTNESYQLLFQMLPNQEIYNFTLNAHNPLGRSQSTILVNITEKVYPHTPTSFKVKDINSTAVKLSWHLPGNFAKINFLCEIEIKKSNSVQEQRNVTIKGVENSSYLVALDKLNPYTLYTFRIRCSTETFWKWSKWSNKKQHLTTEASQKELAELRESTSQMHTASSLEKQIGHPSPPPEKKELRKVAHLTGKSNSRSMPLEWEDTYGIVLLSGVKYKKGGLVINETGLYFVYSKVYFRGQSCNNLPLSHKVYMRNSKYPQDLVMMEGKMMSYCTTGQMWARSSYLGAVFNLTSADHLYVNVSELSLVNFEESQTFFGLYKL

Tests used:
[1] = target: HLA-pfFasL (human); experiment: cell-based or functional assay
[2] = target: T1, Fas (CD95/APO-1) on Jurkat cells (human, UniProt P25445 26-335); experiment: cell-based or functional assay
T1 sequence (looked up): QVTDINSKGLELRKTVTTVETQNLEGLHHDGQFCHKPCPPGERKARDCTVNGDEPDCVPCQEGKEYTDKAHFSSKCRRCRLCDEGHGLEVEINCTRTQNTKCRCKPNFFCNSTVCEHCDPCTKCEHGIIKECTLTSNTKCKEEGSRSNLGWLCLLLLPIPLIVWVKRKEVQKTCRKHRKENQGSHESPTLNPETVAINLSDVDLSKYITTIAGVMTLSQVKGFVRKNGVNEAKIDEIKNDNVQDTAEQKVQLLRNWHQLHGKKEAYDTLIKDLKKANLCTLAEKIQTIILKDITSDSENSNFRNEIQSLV

[3] = target: T1, Fas (CD95/APO-1) on Jurkat cells; experiment: cell-based or functional assay; remark: listed apart in the source
[4] = target: B5; experiment: SPR (BIAcore), Fas-Fc immobilised on chip, FasL construct as analyte; reference cFasL
Experimental: (§1) The experiments were carried out on a BIAcore 3000 optical biosensor (GE healthcare, Chalfont, UK). The FasL chimeras were produced as COS supernatants in Opti-MEM medium, concentrated 100 times, dialyzed against PBS and sterilized by filtration. Recombinant Fas-Fc (R&Dsystems, Minneapolis, Minn.) was covalently coupled to a carboxymethyl dextran flow cell (CM5, BIAcore) following the manufacturer's recommendations. The level of immobilization was 2,000 resonance units (RU). Binding of the FasL chimeras was assayed at concentrations ranging from 0.2 to 100 nM for IgFasL, 0.2 to 44 nM for cFasL, 0.2 to 37.5 nM for D2FasL, and 0.25 to 8 nM for D1IgD2FasL, in Hepes-buffered saline, at a 30 μl/min flow rate. Association was monitored for 5 min before initiating the dissociation phase for another 11 min with Hepes-buffered saline. The flow cell was regenerated with 4M MgCl2. The sensorgrams were analyzed using the BIAeval 4.1 software (BIAcore). The background of the Opti-MEM medium was at 30 RU.
(§2) The affinity of the FasL chimeras for Fas was measured using the surface plasmon resonance Biacore® method, against recombinant Fas-Fc immobilized on a chip. IgFasL, D2FasL, D1IgD2FasL and sFasL as a control, were produced as supernatants in COS cells cultured in serum-free medium, concentrated 100 times, and dialysed against PBS.

[5] = target: B5; experiment: SPR (BIAcore 3000), Fas-Fc immobilised on CM5 chip
Experimental: as §1, §2

[6] = target: B5; experiment: SPR (BIAcore 3000), Fas-Fc immobilised on CM5 chip, FasL construct as analyte
Experimental: as §1, §2

[7] = target: T1, Fas (CD95/APO-1) on Jurkat cells; experiment: cell-based or functional assay; remark: listed apart in the source
[8] = target: B3; experiment: SPR (BIAcore 3000), Fas-Fc immobilised on CM5 chip, FasL construct as analyte
Experimental: as §1, §2

[9] = target: T2, cleaved FasL (cFasL) (human, UniProt P48023 127-281); experiment: as above
T2 construct: range 127-281; Supernatant of COS cells transfected with wild-type FasL; also called spontaneously cleaved membrane FasL; metalloprotease-cleaved FasL
T2 sequence (looked up): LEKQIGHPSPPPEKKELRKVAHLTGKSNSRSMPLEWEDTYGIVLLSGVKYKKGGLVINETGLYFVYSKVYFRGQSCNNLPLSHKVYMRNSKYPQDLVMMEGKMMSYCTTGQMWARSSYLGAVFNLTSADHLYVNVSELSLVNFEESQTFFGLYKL
Experimental: as §1, §2

[10] = target: B6; experiment: as above
Experimental: as §1, §2

Molecule: anti-Flag mAb (clone M2) (antibody)
enhancement of the cytotoxicity of HLA-pfFasL on CD32+ L-cells by pre-formed immune complexes [1]: 2.5 fold

Molecule: anti-β2 microglobulin mAb (clone B2M-01) (antibody)
enhancement of the cytotoxicity of HLA-pfFasL on CD32+ L-cells by pre-formed immune complexes [1]: 2.5 fold

Molecule: Flag-tagged sFasL (sfFasL) (from UniProt P48023 108-281) (ligand)
cytotoxicity EC50 on the Jurkat cell line (MTT assay) [2]: > 3 µg/mL
cytotoxicity on Jurkat cells, activity against pfFasL (fold less active than pfFasL) [2]: > 5000

Molecule: Anti-human Fas agonistic mAb 7C11 (IgM) (antibody)
concentration required to kill 50% of the Jurkat cells [2]: 2 ng/mL

B1: polymeric Flag-tagged soluble FasL (pfFasL) (ligand, not shown: small tags and cut ends)
chain: IPDSQTKVFPQDKVILVGSDITFCCVSQEKVLSALIGHTNCPLIHLDGENVAIKIRNISVSASSGTNVVFTTEDNIFGTVISRALQKELAELRESTSQMHTASSLEKQIGHPSPPPEKKELRKVAHLTGKSNSRSMPLEWEDTYGIVLLSGVKYKKGGLVINETGLYFVYSKVYFRGQSCNNLPLSHKVYMRNSKYPQDLVMMEGKMMSYCTTGQMWARSSYLGAVFNLTSADHLYVNVSELSLVNFEESQTFFGLYKL
cytotoxicity EC50 on the Jurkat cell line (MTT assay) [3]: 0.6 ng/mL and 15.5 pM

fold affinity against cFasL (Kd ratio) [4]: 6 fold
fold difference of Kd against cFasL [5]: 6 fold
Kd [6]: 11.6 nM
koff [6]: 0.00041 s⁻¹
kon [6]: 25000 M⁻¹ s⁻¹
B2: IgFasL (ligand)
chain: IPDSQTKVFPQDKVILVGSDITFCCVSQEKVLSALIGHTNCPLIHLDGENVAIKIRNISVSASSGTNVVFTTEDNIFGTVISRALQKELAELRESTSQMHTASSLEKQIGHPSPPPEKKELRKVAHLTGKSNSRSMPLEWEDTYGIVLLSGVKYKKGGLVINETGLYFVYSKVYFRGQSCNNLPLSHKVYMRNSKYPQDLVMMEGKMMSYCTTGQMWARSSYLGAVFNLTSADHLYVNVSELSLVNFEESQTFFGLYKL
notes: also called pFasL; polymeric FasL

Molecule: B3
fold affinity against cFasL (Kd ratio) [4]: 2 fold
fold difference of Kd against cFasL [5]: 2 fold
cell death of Jurkat cells (MTT assay), potency against IgFasL [7]: 12.5 fold less potent than IgFasL

B4: soluble FasL (sFasL) (ligand)
chain: QKELAELRESTSQMHTASSLEKQIGHPSPPPEKKELRKVAHLTGKSNSRSMPLEWEDTYGIVLLSGVKYKKGGLVINETGLYFVYSKVYFRGQSCNNLPLSHKVYMRNSKYPQDLVMMEGKMMSYCTTGQMWARSSYLGAVFNLTSADHLYVNVSELSLVNFEESQTFFGLYKL
cytotoxicity EC50 on the Jurkat cell line (MTT assay) [3]: > 3 µg/mL
cytotoxicity on Jurkat cells, activity against pfFasL [7]: ≥ 5000 fold less active than pfFasL

Molecule: B5
Kd [8]: 38.5 nM
koff [8]: 0.006 s⁻¹
kon [8]: 160000 M⁻¹ s⁻¹
Kd [9]: 69.4 nM
koff [9]: 0.0059 s⁻¹
kon [9]: 84000 M⁻¹ s⁻¹
Kd [10]: 25.6 nM
koff [10]: 0.0033 s⁻¹
kon [10]: 130000 M⁻¹ s⁻¹

Molecule: B6
cell death of Jurkat cells (MTT assay), potency against IgFasL [7]: 125 fold less potent than IgFasL
